Test results as given in patent US20080044405A1 (Harvard, published 2008).

What was measured:
[1] = target: T1, HLA-DR1 (soluble, produced by Drosophila S2 cell lines) (human); assay: fluorescence polarization, DR1-CLIP-AlexaFluor488 0.1 uM at 37 C in the presence of 100 uM KAuCl4, no DM, no excess HA peptide
[2] = target: T1, HLA-DR1 (soluble, produced by …); assay: fluorescence polarization, DR1-CLIP-AlexaFluor488 0.1 uM at 37 C in the presence of 100 uM K2PdCl4, no DM, no excess HA peptide
[3] = target: T1, HLA-DR1 (soluble, produced by …); assay: fluorescence polarization, DR1-CLIP-AlexaFluor488 0.1 uM at 37 C in the presence of 100 uM K2PtCl4, no DM, no excess HA peptide
[4] = target: T1, HLA-DR1 (soluble, produced by …); assay: fluorescence polarization, DR1-CLIP-AlexaFluor488 0.1 uM at 37 C in the presence of 100 uM cisplatin, no DM, no excess HA peptide
[5] = target: T1, HLA-DR1 (soluble, produced by …); assay: fluorescence polarization, DR1-CLIP-AlexaFluor488 0.1 uM at 37 C with DM (0.1 uM) and excess unlabeled HA peptide (100 uM), no metal
[6] = target: T1, HLA-DR1 (soluble, produced by …); assay: fluorescence polarization, DR1-CLIP-AlexaFluor488 0.1 uM at 37 C without DM, with excess unlabeled HA peptide (100 uM), no metal (intrinsic dissociation)

B1: Alexa-Fluor 488-labeled CLIP peptide (peptide)
peptide: CPVSKMRMATPLLMQA
modifications: Cys labelled with AlexaFluor 488 C5 maleimide
notes: an N-terminal Cys is added to CLIP(87-101); also called af-CLIP; CLIP-AlexaFluor488
t1/2 of CLIP dissociation [1]: 2.76 h | t1/2 of CLIP dissociation [2]: 1.59 h | t1/2 of CLIP dissociation [3]: 3.05 h | t1/2 of CLIP dissociation [4]: 4.34 h | t1/2 of CLIP dissociation [5]: 8.66 h | t1/2 of CLIP dissociation [6]: 94.6 h
